Earlier results, collected in PMC4850115.

Biological target: p38 (Homo sapiens) (UniProt Q16539)
Chain of UniProt Q16539 (Q16539 2-360): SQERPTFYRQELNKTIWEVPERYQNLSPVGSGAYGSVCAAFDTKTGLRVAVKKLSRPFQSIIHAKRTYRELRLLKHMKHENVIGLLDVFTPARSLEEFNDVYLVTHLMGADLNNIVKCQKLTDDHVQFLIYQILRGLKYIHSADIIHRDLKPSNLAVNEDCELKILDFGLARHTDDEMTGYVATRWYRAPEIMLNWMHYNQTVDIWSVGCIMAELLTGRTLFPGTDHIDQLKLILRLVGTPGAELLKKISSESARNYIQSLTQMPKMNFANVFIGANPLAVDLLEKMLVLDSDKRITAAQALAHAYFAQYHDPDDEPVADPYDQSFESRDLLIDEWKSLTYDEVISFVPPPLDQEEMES

Kd: 20 nM
Substance: MK2 370-400 (from UniProt P49137)
